This passage reports Km, kcat and kcat/Km results from publication PMC4861830, “Isolation and Characterization of Three New Monoterpene Synthases from Artemisia annua” (Frontiers in Plant Science, 2016).

The term Km denotes the concentration of substrate that gives half-maximal velocity. As a reminder, the kcat is the number of substrate molecules converted per active site and unit of time at saturation. By kcat/Km is commonly meant the turnover number divided by the Michaelis constant.

Substrate in this data set: CC(C)=CCC/C(C)=C/COP(=O)(O)OP(=O)(O)O
Put plainly: purified protein. Format: biochemical, Artemisia annua. Particulars: Mg2+ (5 mM MgCl2), 25 mM HEPES pH 7.0, 5 mM DTT, 30 °C, GPP 3-100 μM.

[1] abbreviates: Table 1 prints 19.74 (text and table disagree; printed kcat/Km 7.66 × 10^4 fits 19.47).

B1: AaTPS5 (Artemisia annua) (protein)
chain: IRRSAGYPPSLWPYERIQAINSIYTGEKYASRLETLKEEVRNMIYKENEKAENPLSTLNLVDDLQRLGIWYHFVDDINNVLDNVYNKYYKSPEKWNTLDLNLKALGFRLLRHNGYHITQDIFEDIQDETRIMGHTIEDTLGLLNLYEASYHSFEDENILDEARAFTKKYLQGSLGKIDDQYLSSLTSRALDMPLHWRIARVETIWFMEAYEKRSGMNPTVLDLAKLDFNMVQAVHQEDLKYASRWWRTTKWDDKLSFARDRLVENYMWTIGNSYRPQFTLLRRILTKVFAIITTVDDVYDVHGTLDELERFTDVISRWNIYAIEELPDYMKICFLGFYNSVNDMAYTTLTDTGFFILPYLQKAWEDLCKAYLVEARWYHTKYMPTFKEYLDIAEVSISVPLMLTHISFVMNVCSTEEVIQSMDKIKNLIRYSSQILRLADDLGTSSDEMARGDTPKSIQCYMHETGATEEEARAHVRSLIIKVWQKLNKERAGLKTTYLKEFGECAANFGRMAQFMYQVADGHGHNIDLTEAYVLSLVVNPIQGV
notes: N-terminal 57-residue plastid signal peptide removed (before RR motif; full length 602 residues); pET-32a fusion tag kept; E. coli BL21(DE3); Ni-NTA
Consider B1, for which, under setting [1], the Km worked out at 19.47 µM and the kcat came to 1.49 s⁻¹.

B2: AaTPS2 (Artemisia annua) (protein)
chain: VRRTANYEPTLWSYDHIQSLSSKYTGEEYAARANILKNSVKRLLGEVENSPSILELVNDLQRLGIYYHFEDEIRNALEMIYYKYYKTPDKWGKMDLNLTALGFRLLRQHGYQVPQEIFQNFLDNAQNLKPHLLEEIAGMLNLYEASYHAFEDETILDNARAFTTKYLKENLDKIDGHILSLVSHALEFPLHWRVPRVEAKWYIEVYEKKNGMNHILIELAKLDFDMVQAIHLEDLKHASRWWRNTNWDKKLSFARDRLVENFLWTIGFNYLPQFSHGRRTLTKVNALITTIDDVYDVFGTLDEIEQFTDATNRWDINSIEELPDYMKICFLGFYNTINEITYNALTNKRFIILPYLKKAWGDLFKSFVVEANWYQSGHIPTLEEYLENGCISISGPVILMHVHFITSISSAEEIMQCMEISKDIVRYSSLIFRLTDDLGTSSGEMERGDNPKSLQCYMHETGASEDEARIYMKSLIGETWKKLNKERTHASSDITREFIDFATNLVRMAQFMYGEGDVHGRPDVTKSHVLSLLFNPIQEI
notes: N-terminal 46-residue plastid signal peptide removed (before RR motif; full length 586 residues); pET-32a fusion tag kept; E. coli BL21(DE3); Ni-NTA
Consider B2, for which the Michaelis-Menten constant (Km) worked out at 8.25 µM, the turnover number (kcat) was determined as 0.52 s⁻¹ and the kcat/Km was 63100 M⁻¹ s⁻¹.

B3: AaTPS6 (Artemisia annua) (protein)
chain: GRRSANYEPSLWSFDHVQSLSSKYTGKNYVSRADSLKKIVKTMIHEVGNPSTALELVDDLQRLGIWYHFEDEISNVLEMIYRDFYDNEDRCSKMDMNFKALSFRLLRQHGYHVPQEIFHNFKEKTQNLKPYLHEDMVVMLNIYEASYYSYEDESIMDDARDFTAKYLKENHDSIDESISSLVSHALEFPLHWRIPREEAKWFIEFYEKRSGRNPTLIELAKLDFNMVQSIHLEDLKHASRWWRNTCWDKELPFARDRLMENFLWTVGVNYLPRFSLGRRTLTKVNAMITTIDDVYDVFGTIDELEKFTEVTNRWDINAVEELPDYMQICFIAFYNSINEIAYNTLTDTKFLILQYLKKGWVDLCNSYLKEAQWYESGYVPTLEEYLENAYVSISAPVILTHVNFLTTITSKEEILQFMETSDNIVRYSSLILRLADDLGTSSLEMARGDVPKSIQCYMHESGASEDEARMHIKDLILETWKKFNKEREHVKSKIAREFTYCAMNLGRMAQFMYREGDGHGHLSDVTKSHVLSWLINPIQGM
notes: N-terminal 46-residue plastid signal peptide removed (before RR motif; full length 587 residues); pET-32a fusion tag kept; E. coli BL21(DE3); Ni-NTA
For the protein B3, the Km worked out at 17.70 µM, the kcat worked out at 4.46 s⁻¹ and the kcat/Km was found to be 252000 M⁻¹ s⁻¹.
